Entries after “also recorded” stand apart in the source; their conditions may differ.
Experiments:
Type in all cases: cell-based, human
[1] = tested on: BRCA1; experiment: qPCR gene response to cisplatin in OVCAR8 cells; details: OVCAR8 stable clones vs non-silencing control
Procedure: (§1) Total RNA was extracted from cell pellets using the mirVana miRNA extraction kit (Ambion, Austin, Tex.) according to the manufacturer's instructions. Levels of microRNA expression were examined using Mature MicroRNA Taqman assays (Applied Biosystems, Foster City, Calif.) using U6 as a control. For all gene expression assays, cDNA was prepared using qScript cDNA supermix (Quanta Biosciences, Gaithersburg, Md.). TaqMan gene expression assays (Applied Biosystems) were used to measure expression of specific target genes according to the manufacturer's instructions. All reactions were performed in triplicate using OneStepPlus real time PCR system (Applied Biosystems). All qPCR results are reported using the ΔΔCT method (17).

[2] = tested on: CASP7; experiment: qPCR gene response to cisplatin in OVCAR8 cells; details: OVCAR8 stable clones vs non-silencing control
Procedure: as §1

[3] = tested on: CHK1; experiment: qPCR gene response to cisplatin in OVCAR8 cells; details: OVCAR8 stable clones vs non-silencing control
Procedure: as §1

[4] = tested on: CDC25c; experiment: qPCR gene response to cisplatin in OVCAR8 cells; details: OVCAR8 stable clones vs non-silencing control
Procedure: as §1

[5] = tested on: CHK2; experiment: qPCR gene response to cisplatin in OVCAR8 cells; details: OVCAR8 stable clones vs non-silencing control
Procedure: as §1

[6] = tested on: SKOV3ip1 cells; experiment: Proliferation assay (MTS, Cell Titer 96 Aqueous One); details: no cisplatin
Procedure: (§2) Established ovarian cancer cell lines were obtained from the ATCC (OVCAR8, OVCAR5) and the University of Texas M.D. Anderson Cancer Center (HEYA8, SKOV3ip1). All cell lines were maintained at 37° C. in RPMI 1640 media (Invitrogen, Carlsbad, Calif.) supplemented with 10% fetal bovine serums (Hyclone, Logan, Utah) and 1% penicillin/streptomycin (Gibco, Carlsbad, Calif.). MicroRNA mimics and mimic controls (Dharmacon, Lafayette, Colo.) were transiently transfected into actively growing cultures using Lipofectamine 2000 (Invitrogen, Carlsbad, Calif.). After a 24-hour incubation, transfected cultures were washed, passaged and seeded into 96 well plates. Proliferation and apoptosis were measured at 72, 96 and 120 hours after transfection using standard assays (Cell Titer 96 Aqueous One; Caspase Glo 3/7; Promega, Madison, Wis.). pLemiR expression vectors (Open Biosystems/Thermo, Huntsville, Ala.) were prepared according to manufacturer's instructions and transfected into cells using Fugene 6 (Roche, Indianapolis, Ind.). Following transfection, stable clones were selected using puromycin (Invitrogen) at doses optimized for each line. Rates of proliferation and apoptosis were examined in stable transfectants 24, 48, 72 and 96 hours after selected cells had been passaged and dispensed into 96 well plates. Viability was assessed across a clinically relevant range of cisplatin concentrations using an MTS assay (Promega). Cisplatin was obtained from Teva Pharmaceuticals (Irvine, Calif.).

[7] = tested on: HEYA8 cells; experiment: Proliferation assay; details: HEYA8, acute mimic transfection
Procedure: as §2

[8] = tested on: OVCAR5; experiment: Proliferation assay; details: OVCAR5, mimic transfection
Procedure: as §2

[9] = tested on: HEY cells; experiment: Proliferation assay; details: mimic transfection
Procedure: as §2

B1: hsa-mir-520h MI0003175 (nucleic acid, listed as Homo sapiens)
chain: UCCCAUGCUGUGACCCUCUAGAGGAAGCACUUUCUGUUUGUUGUCUGAGAAAAAACAAAGUGCUUCCCUUUAGAGUUACUGUUUGGGA
modifications: expressed or natural sequence
notes: synthetic mimic or stably expressed from pLemiR vector; written miR-520g/h interchangeably
BRCA1 expression response to cisplatin [1]: blunts the responses
BRCA1 expression response to cisplatin ([1]; listed as miR-520g/h): significantly less
Caspase 7 expression response to cisplatin [2]: targeted; also recorded: blunts the responses
Caspase 7 expression response to cisplatin ([2]; listed as miR-520g/h): significantly less
CHK1 expression response to cisplatin [3]: inhibited; also recorded: blunts the responses
CDC25C expression response to cisplatin [4]: blunts the responses
CHK2 expression response to cisplatin [5]: blunts the responses
Proliferation ([6]; SKOV3ip1, acute mimic transfection): significantly reduced
Proliferation ([6]; SKOV3ip1 clones stably expressing the microRNA): enhanced the proliferation
Proliferation [7]: no significant impact
Proliferation [8]: no impact
Proliferation [9]: no impact
